Patent US20180086841A1 (Merck Sharp & Dohme, published 2018)

T1: His9G-tagged cynomolgus CD27 recombinant protein (cynomolgus, limits assumed)
T1 construct: In-house, transient transfection of HEK293 cells; also called Cyno CD27/His
T1 chain: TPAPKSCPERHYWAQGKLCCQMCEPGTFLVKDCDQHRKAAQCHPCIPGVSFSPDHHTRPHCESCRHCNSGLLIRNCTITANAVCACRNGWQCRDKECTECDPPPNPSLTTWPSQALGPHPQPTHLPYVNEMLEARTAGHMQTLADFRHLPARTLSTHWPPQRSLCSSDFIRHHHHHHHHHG


Assays:
human CD27 [1] = target: T2, human CD27 (human, UniProt P26842 21-260); assay: flow cytometry on primary T cells
T2 construct: also called hCD27; HsCD27

human CD27 [2] = target: T2, human CD27; assay: cell ELISA on transfected CHO cells
Protocol: (§1) Purified antibodies were assayed for binding to human CD27 expressing CHOK1 cells using a cell-based ELISA format. Human CD27 expressing CHOK1 cells were plated in 96-well tissue-culture plates in 50 μl of DMEM/F12, 10% BCS (bovine calf serum) (CHO-K1 media). Cells were plated at either 2×10⁴ cells/well two days prior to the assay or 4×10⁴ cells/well one day prior to the assay. Media was removed from the wells prior to the assay followed by incubation of mAb in 100 μL fresh culture medium at a starting concentration of 10 μg/mL and 8 step 1:5 serial dilutions (hIgG4 antibodies) or starting concentration of 50 μg/mL and 8 step 1:5 serial dilutions (hIgG1 antibodies). The antibodies were incubated for 30-60 minutes at room temperature and washed 3 times with PBS/0.05% Tween 20 using a cell ELISA washing protocol on the Biotek EL405x Select CW plate washer.

human CD27 [3] = target: T2, human CD27; assay: cell ELISA on human CD27 CHOK1 cells, hIgG1
Protocol: as §1

human CD27 [4] = target: T2, human CD27; assay: flow cytometry MFI, CD4+ T cells of human PBMC, N=2 donors
Protocol: (§2) Labeled cells were washed by re-suspending them in 150 ul of staining buffer (SB) followed by centrifugation at 300 g for 5 minutes. Cells were then resuspended in 100 ul of SB containing primary anti-CD27 antibodies at various concentrations, incubated in the dark at 4° C. for 30 minutes, followed by washing and centrifugation steps as previously described. […] Cells were incubated for 30 minutes at 4° C. in the dark, followed by washing and centrifugation steps. Next, cells were stained with a cocktail of phenotypic antibodies for surface markers (CD3, CD4, CD8, CD11b) and incubated for 30 minutes at 4° C. in the dark, followed by washing and centrifugation steps. […] Samples were acquired in a LSR-Fortessa flow cytometer (BD Biosciences) using the high throughput sampler and data analyzed by FlowJo software (Tree Star Inc).

human CD27 [5] = target: T2, human CD27; assay: flow cytometry MFI, CD8+ T cells of human PBMC, N=2 donors
Protocol: as §2

[6] = target: T3, His9G-tagged human CD27 recombinant protein (human, UniProt P26842 21-191); assay: SPR Biacore 4000, antibody captured on anti-human Fc, His9G-tagged CD27 injected, 1:1 fit;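 further: Double-referenced SPR (blank anti-Fc surface and buffer injection subtracted), KD derived from association and dissociation rate constants, with human and cynomolgus CD27 as analytes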
T3 construct: In-house, transient transfection of HEK293 cells; also called Human CD27/His
Description: (§3) Flow cell spots modified with anti-human Fc antibody but lacking CD27 antibodies were used as reference. […] The chip surface was regenerated with a 30 second injection of 3M MgCl₂ after each injection cycle.
(§4) Data were double referenced by subtracting the response from a blank surface and that from a buffer injection and used for analyzing the rate constant of association (kₐ) and dissociation (kd), and the equilibrium dissociation constant KD. The resulting data sets were fitted with a Langmuir 1:1 binding model using the Biacore 4000 BIAevaluation software, version 1.0 (GE/Biacore).

[7] = target: T1, His9G-tagged cynomolgus CD27 …; assay: as above
Description: as §3, §4

human CD27 [8] = target: T2, human CD27; assay: cell ELISA on human CD27 CHOK1 cells, hIgG4
Protocol: as §1

Binder | EC50 relative to 131AVH6VL6-hIgG1 (human CD27 [1]) | fold EC50 against 131AVH6VL6-hIgG1 (human CD27 [2]) | EC50 (human CD27 [3]) | EC50 (human CD27 [4]) | EC50 (human CD27 [5]) | Kd [6] | Kd [7] | EC50 (human CD27 [8])
hCD27.131A VH9VL9 huIgG4 (antibody, V domains shown) VH: EIQLVQSGAEVKKPGASVKVSCKASGYTFTNYGMNWVRQAPGQGLKWMGWINTNTGEPTYAEEFKGRFTFTLDTSASTAYMELSSLRSEDTAVYYCAREGDAMDYWGQGTTVTVSS VL: DIQLTQSPSTLSASVGDRVTITCSASSSVSYMHWYQQKPGKAPKRWIYDTSKLASGVPARFSGSGSGTDYTLTISSLQPEDFATYYCQQWNSYPFTFGQGTKLEIK |  | ≤ 2 fold |  |  |  | 104 nM | 72.9 nM | 0.13 nM
hCD27.131A VH6VL6 huIgG4 (antibody, V domains shown) VH: EIQLVQSGAEVKKPGASVKVSCKASGYTFTNYGMNWVKQAPGQGLKWMGWINTNTGEPTYAEEFKGRFTFTLDTSISTAYMELSSLRSEDTAVYYCAREGDAMDYWGQGTTVTVSS VL: EIVLTQSPATLSLSPGERATLSCSASSSVSYMHWYQQKPGQAPKRWIYDTSKLASGVPARFSGSGSGTDYSLTISSLEPEDFAVYYCQQWNSYPFTFGQGTKLEIK |  |  |  |  |  | 168 nM | 73 nM | 0.101 nM
hCD27.131A VH6VL7 huIgG1 (antibody, V domains shown) VH: EIQLVQSGAEVKKPGASVKVSCKASGYTFTNYGMNWVKQAPGQGLKWMGWINTNTGEPTYAEEFKGRFTFTLDTSISTAYMELSSLRSEDTAVYYCAREGDAMDYWGQGTTVTVSS VL: EIVLTQSPATLSLSPGERATLSCSASSSVSYMHWYQQKPGQAPKRWIYDTSKLASGVPARFSGSGSGTSYSLTISSLEPEDFATYYCQQWNSYPFTFGQGTKLEIK | ≤ 10 % above the EC50 of 131AVH6VL6-hIgG1 | ≤ 2 fold | 0.13 nM | 0.123 nM | 0.11 nM | 71.7 nM | 41.9 nM | 
hCD27.131A VH7VL7 huIgG4 (antibody, V domains shown) VH: EIQLVQSGAEVKKPGASVKISCKASGYTFTNYGMNWVKQAPGQGLKWMGWINTNTGEPTYAEEFKGRFTFTLDTSATTAYLEISSLRSEDTAVYYCAREGDAMDYWGQGTTVTVSS VL: EIVLTQSPATLSLSPGERATLSCSASSSVSYMHWYQQKPGQAPKRWIYDTSKLASGVPARFSGSGSGTSYSLTISSLEPEDFATYYCQQWNSYPFTFGQGTKLEIK |  | ≤ 2 fold |  |  |  | 82.4 nM | 36.7 nM | 0.084 nM
hCD27.131A VH8VL7 huIgG4 (antibody, V domains shown) VH: EIQLVQSGAEVKKPGASVKVSCKASGYTFTNYGMNWVKQAPGQGLKWMGWINTNTGEPTYAEEFKGRFTFTLDTSISTAYMELSSLRNEDTAVYYCAREGDAMDYWGQGTTVTVSS VL: EIVLTQSPATLSLSPGERATLSCSASSSVSYMHWYQQKPGQAPKRWIYDTSKLASGVPARFSGSGSGTSYSLTISSLEPEDFATYYCQQWNSYPFTFGQGTKLEIK |  | ≤ 2 fold |  |  |  | 89.3 nM | 76.8 nM | 0.088 nM
hCD27.131A VH6VL8 huIgG4 (antibody, V domains shown) VH: EIQLVQSGAEVKKPGASVKVSCKASGYTFTNYGMNWVKQAPGQGLKWMGWINTNTGEPTYAEEFKGRFTFTLDTSISTAYMELSSLRSEDTAVYYCAREGDAMDYWGQGTTVTVSS VL: EIVLTQSPATLSASPGERVTLSCSASSSVSYMHWYQQKPGQAPKRWIYDTSKLASGVPARFSGSGSGTDYSLTISSMEPEDFAVYYCQQWNSYPFTFGQGTKLEIK |  | ≤ 2 fold |  |  |  | 99.1 nM | 55.2 nM | 0.103 nM
hCD27.131A VH6VL7 huIgG4 (antibody, V domains shown) VH: EIQLVQSGAEVKKPGASVKVSCKASGYTFTNYGMNWVKQAPGQGLKWMGWINTNTGEPTYAEEFKGRFTFTLDTSISTAYMELSSLRSEDTAVYYCAREGDAMDYWGQGTTVTVSS VL: EIVLTQSPATLSLSPGERATLSCSASSSVSYMHWYQQKPGQAPKRWIYDTSKLASGVPARFSGSGSGTSYSLTISSLEPEDFATYYCQQWNSYPFTFGQGTKLEIK |  | ≤ 2 fold |  |  |  | 108 nM | 82 nM | 0.132 nM
hCD27.131A VH8VL6 huIgG4 (antibody, V domains shown) VH: EIQLVQSGAEVKKPGASVKVSCKASGYTFTNYGMNWVKQAPGQGLKWMGWINTNTGEPTYAEEFKGRFTFTLDTSISTAYMELSSLRNEDTAVYYCAREGDAMDYWGQGTTVTVSS VL: EIVLTQSPATLSLSPGERATLSCSASSSVSYMHWYQQKPGQAPKRWIYDTSKLASGVPARFSGSGSGTDYSLTISSLEPEDFAVYYCQQWNSYPFTFGQGTKLEIK |  | ≤ 2 fold |  |  |  | 132 nM | 59.7 nM | 0.097 nM
hCD27.131A VH8VL8 huIgG4 (antibody, V domains shown) VH: EIQLVQSGAEVKKPGASVKVSCKASGYTFTNYGMNWVKQAPGQGLKWMGWINTNTGEPTYAEEFKGRFTFTLDTSISTAYMELSSLRNEDTAVYYCAREGDAMDYWGQGTTVTVSS VL: EIVLTQSPATLSASPGERVTLSCSASSSVSYMHWYQQKPGQAPKRWIYDTSKLASGVPARFSGSGSGTDYSLTISSMEPEDFAVYYCQQWNSYPFTFGQGTKLEIK |  | ≤ 2 fold |  |  |  | 110 nM | 96.7 nM | 0.129 nM

The next binders have a lower Kd [6] than those just listed; values first:

EC50 relative to 131AVH6VL6-hIgG1 (human CD27 [1]) | fold EC50 against 131AVH6VL6-hIgG1 (human CD27 [2]) | EC50 (human CD27 [3]) | EC50 (human CD27 [4]) | EC50 (human CD27 [5]) | Kd [6] | Kd [7] | EC50 (human CD27 [8]) | Binder
≤ 10 % above the EC50 of 131AVH6VL6-hIgG1 | ≤ 2 fold | 0.111 nM | 0.0774 nM | 0.0721 nM | 62.2 nM | 105 nM |  | hCD27.131A VH9VL9 huIgG1 (antibody, V domains shown) VH: EIQLVQSGAEVKKPGASVKVSCKASGYTFTNYGMNWVRQAPGQGLKWMGWINTNTGEPTYAEEFKGRFTFTLDTSASTAYMELSSLRSEDTAVYYCAREGDAMDYWGQGTTVTVSS VL: DIQLTQSPSTLSASVGDRVTITCSASSSVSYMHWYQQKPGKAPKRWIYDTSKLASGVPARFSGSGSGTDYTLTISSLQPEDFATYYCQQWNSYPFTFGQGTKLEIK
≤ 10 % above the EC50 of 131AVH6VL6-hIgG1 | ≤ 2 fold | 0.162 nM | 0.128 nM | 0.127 nM | 41.3 nM | 34.8 nM |  | hCD27.131A VH7VL6 huIgG1 (antibody, V domains shown) VH: EIQLVQSGAEVKKPGASVKISCKASGYTFTNYGMNWVKQAPGQGLKWMGWINTNTGEPTYAEEFKGRFTFTLDTSATTAYLEISSLRSEDTAVYYCAREGDAMDYWGQGTTVTVSS VL: EIVLTQSPATLSLSPGERATLSCSASSSVSYMHWYQQKPGQAPKRWIYDTSKLASGVPARFSGSGSGTDYSLTISSLEPEDFAVYYCQQWNSYPFTFGQGTKLEIK
 | ≤ 2 fold |  |  |  | 65.7 nM | 58.2 nM | 0.042 nM | hCD27.131A VH7VL6 huIgG4 (antibody, V domains shown) VH: EIQLVQSGAEVKKPGASVKISCKASGYTFTNYGMNWVKQAPGQGLKWMGWINTNTGEPTYAEEFKGRFTFTLDTSATTAYLEISSLRSEDTAVYYCAREGDAMDYWGQGTTVTVSS VL: EIVLTQSPATLSLSPGERATLSCSASSSVSYMHWYQQKPGQAPKRWIYDTSKLASGVPARFSGSGSGTDYSLTISSLEPEDFAVYYCQQWNSYPFTFGQGTKLEIK
≤ 10 % above the EC50 of 131AVH6VL6-hIgG1 | ≤ 2 fold | 0.131 nM | 0.126 nM | 0.124 nM | 68.2 nM | 56.5 nM |  | hCD27.131A VH6VL8 huIgG1 (antibody, V domains shown) VH: EIQLVQSGAEVKKPGASVKVSCKASGYTFTNYGMNWVKQAPGQGLKWMGWINTNTGEPTYAEEFKGRFTFTLDTSISTAYMELSSLRSEDTAVYYCAREGDAMDYWGQGTTVTVSS VL: EIVLTQSPATLSASPGERVTLSCSASSSVSYMHWYQQKPGQAPKRWIYDTSKLASGVPARFSGSGSGTDYSLTISSMEPEDFAVYYCQQWNSYPFTFGQGTKLEIK
 | ≤ 2 fold |  |  |  | 58.5 nM | 40.1 nM | 0.086 nM | hCD27.131A VH7VL8 huIgG4 (antibody, V domains shown) VH: EIQLVQSGAEVKKPGASVKISCKASGYTFTNYGMNWVKQAPGQGLKWMGWINTNTGEPTYAEEFKGRFTFTLDTSATTAYLEISSLRSEDTAVYYCAREGDAMDYWGQGTTVTVSS VL: EIVLTQSPATLSASPGERVTLSCSASSSVSYMHWYQQKPGQAPKRWIYDTSKLASGVPARFSGSGSGTDYSLTISSMEPEDFAVYYCQQWNSYPFTFGQGTKLEIK
 |  |  |  |  | 43.4 nM | 31.2 nM |  | 131A chimera huIgG4 (antibody, V domains shown, also called chimeric mouse-human hCD27.131A huIgG4) VH: QIQLVQSGPELKKPGETVKISCKASGYTFTNYGMNWVKQAPGKGLKWMGWINTNTGEPTYAEEFKGRFAFSLETSATTAYLQINNLKNEDTATYFCAREGDAMDYWGQGTSVTVSS VL: QIVLTQSPAIMSASPGEKVTMTCSASSSVSYMHWYQQKSGTSPKRWIYDTSKLASGVPARFSGSGSGTSYSLTISSMEAEDAATYYCQQWNSYPFTFGSGTKLEIK
 |  |  | 0.0664 nM | 0.0649 nM | 29.2 nM | 40.4 nM |  | Mouse Human Chimera CD27 131A-hIgG1 (antibody, V domains shown, also called chimeric mouse-human hCD27.131A huIgG1) VH: QIQLVQSGPELKKPGETVKISCKASGYTFTNYGMNWVKQAPGKGLKWMGWINTNTGEPTYAEEFKGRFAFSLETSATTAYLQINNLKNEDTATYFCAREGDAMDYWGQGTSVTVSS VL: QIVLTQSPAIMSASPGEKVTMTCSASSSVSYMHWYQQKSGTSPKRWIYDTSKLASGVPARFSGSGSGTSYSLTISSMEAEDAATYYCQQWNSYPFTFGSGTKLEIK
